T1: SPO11 (beta isoform), WT, in complex with TOP6BL;TOP6BL (Mus musculus;Mus musculus, UniProt Q9WTK8;J3QMY9 1-396;1-579, |)
T1 sequence 1: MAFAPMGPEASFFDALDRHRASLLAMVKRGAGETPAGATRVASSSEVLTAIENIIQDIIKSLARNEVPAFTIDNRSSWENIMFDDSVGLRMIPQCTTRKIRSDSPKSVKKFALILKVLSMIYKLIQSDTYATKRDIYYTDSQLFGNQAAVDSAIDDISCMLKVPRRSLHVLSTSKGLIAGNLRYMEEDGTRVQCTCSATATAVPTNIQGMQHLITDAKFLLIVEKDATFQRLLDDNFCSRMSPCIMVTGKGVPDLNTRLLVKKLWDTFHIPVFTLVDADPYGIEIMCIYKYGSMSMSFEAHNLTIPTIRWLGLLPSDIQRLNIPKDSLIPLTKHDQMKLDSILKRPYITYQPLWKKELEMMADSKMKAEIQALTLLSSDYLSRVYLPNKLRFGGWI
T1 sequence 2: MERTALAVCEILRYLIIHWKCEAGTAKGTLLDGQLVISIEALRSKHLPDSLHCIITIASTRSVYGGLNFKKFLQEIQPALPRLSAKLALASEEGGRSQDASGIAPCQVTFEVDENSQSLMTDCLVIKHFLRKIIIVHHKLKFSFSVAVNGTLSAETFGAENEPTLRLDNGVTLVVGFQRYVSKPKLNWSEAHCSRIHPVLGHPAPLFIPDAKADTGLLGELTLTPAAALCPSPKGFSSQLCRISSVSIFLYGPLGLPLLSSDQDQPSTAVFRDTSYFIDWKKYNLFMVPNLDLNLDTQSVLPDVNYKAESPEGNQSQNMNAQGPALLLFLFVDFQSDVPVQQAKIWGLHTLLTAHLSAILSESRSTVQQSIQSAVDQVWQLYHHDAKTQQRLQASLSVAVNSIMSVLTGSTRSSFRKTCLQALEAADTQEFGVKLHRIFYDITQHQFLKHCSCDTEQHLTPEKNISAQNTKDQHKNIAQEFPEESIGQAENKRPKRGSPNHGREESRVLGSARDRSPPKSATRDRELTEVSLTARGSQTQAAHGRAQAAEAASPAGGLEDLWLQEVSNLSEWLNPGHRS

B1: Flag-tagged mouse SPO11 (natural protein, UniProt Q9WTK8-1 1-396, looked up)
chain: T1 sequence 1
notes: SPO11, mouse, b splicing isoform (includes exon 2), full-length optimized coding DNA; A TEV cleavage site stands between the Flag tag and SPO11; no cleavage is described; also called FlagSPO11; SPO11b; not shown: Flag, N-terminal, kept
B2: oligonucleotide cleavage substrate, 44 bp duplex with A4 loops (structured_DNA)
DNA: CGGTTCAAAAGAACCGGAGCTGAATGAAGCCATACCAAACGACGAGCGTGACACAAAAGTGTCACGCTCGTCGTTTGGTATGGCTTCATTCAGCTC
modifications: circular, ligated by T4 DNA ligase
B3: mouse TOP6BL (Topoisomerase VIB-like) (natural protein, UniProt J3QMY9-1 1-579, looked up)
chain: T1 sequence 2
notes: TOP6BL, mouse, untagged, full-length optimized coding DNA

Experiments:
[1] = target: B3; test: mass photometry; Refeyn OneMP; 28 nM protein; 25 mM HEPES-NaOH pH 7.5, 150 mM NaCl, 2 mM DTT; with 5 mM ATP; settings: both partners purified
[2] = target: T1, SPO11 (beta isoform), WT, in complex …; test: EMSA; apparent Kd (first monomer complex); 5 mM Mg2+, 4 C, 50 mM NaCl; doubly bound complexes form; EMSA: 25 mM Tris-HCl pH 7.5, 100 mM NaCl, 5 mM MgCl2, 2 mM DTT, 7.5% glycerol, 1 mg/ml BSA, 0.1 nM DNA, 30 C 30 min; cleavage substrate: 25 mM HEPES-NaOH pH 7.5, 50 mM NaCl, 5 mM MgCl2, 2 mM DTT, 7.5% glycerol, 1 mg/ml BSA, 4 C 30 min; settings: protein: recombinant;recombinant; tags: N-terminal Flag-TEV;untagged; copies: 1;1; label: internal 32P (5'-labeled before ligation); closed dumbbell, 44 bp duplex, A4 loop at both ends
Flag-tagged mouse SPO11 = target: B1; test: SEC; Superdex 200 Increase 10/300 GL after anti-Flag M2 affinity purification of the co-expressed proteins; lysis buffer 25 mM HEPES-NaOH pH 7.5, 500 mM NaCl; settings: both partners purified

Binder: B1
binding result [1]: binds

Binder: B2
Kd [2]: 1.8 nM

Binder: B3
stoichiometry N (Flag-tagged mouse SPO11): 1
